± gives the standard deviation of the averaged measurements.
Test system: ATP
Assay: switch fluorescence ratio, 500 uM ATP over buffer (Cy3 cluster intensity, sum of 5 cycles each) (fold (ratio)); higher = stronger signal-on switching upon ATP binding; sequences stand for … in TCGTCGGCAGCGTCAGATGTGTATAAGAGACAGTTTTTTTTTTTTTTTTTTTTTTTTT…TC
Settings: aptamer strand: ATP DNA aptamer (quencher-CACCTGGGGGAGTATTGCGGAGGAAGG + anchor), 100 nM annealed; ATP concentration: 500 uM
How it was run: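 Switching-strand clusters labelled with Cy3 on a modified Illumina MiSeq flow-cell were annealed to 100 nM quencher-labelled ATP aptamer, imaged in selection buffer, and re-imaged after 15 min with 500 uM ATP at 22 °C. This was done over five cycles with NaOH stripping and re-annealing in between. The fluorescence ratio is summed target-cycle over summed buffer-cycle Cy3 intensity per cluster, averaged per switch-domain sequence, excluding clusters outside 100-1000 RFU.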
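Also: ATP exposure 15 min at 22 °C before imaging.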

Sequence: TGGTTGGGCA
- switch fluorescence ratio: 0.993 ± 0.055

Sequence: TAAGTTTGGT
- switch fluorescence ratio: 0.985 ± 0.021

Sequence: TTAGAGGGAG
- switch fluorescence ratio: 1.03 ± 0.042

Sequence: TGAAGTTGGG
- switch fluorescence ratio: 1.11 ± 0.15

Sequence: AAAGGGATAG
- switch fluorescence ratio: 1.01 ± 0.038

Sequence: GAGAACGGTG
- switch fluorescence ratio: 1 ± 0.032

Sequence: ATCTAAGGTT
- switch fluorescence ratio: 1.01 ± 0.025

Sequence: GCGGGCTTGG
- switch fluorescence ratio: 0.974 ± 0.015

Sequence: TCCGACTGGT
- switch fluorescence ratio: 1.127 ± 0.0014

Sequence: AGCGGATGCA
- switch fluorescence ratio: 0.985 ± 0.02

Sequence: TAATTCGGGG
- switch fluorescence ratio: 0.97 ± 0.057

Sequence: GGGTGGGGTG
- switch fluorescence ratio: 1 ± 0.018

Sequence: GTTTTTCTGG
- switch fluorescence ratio: 0.9738 ± 0.0078

Sequence: AGCACGGTTA
- switch fluorescence ratio: 1.04 ± 0.049

Sequence: GTGACGGGGC
- switch fluorescence ratio: 1.02 ± 0.058

Sequence: ACGGGGGTTT
- switch fluorescence ratio: 0.997 ± 0.015

Sequence: AGATTGGAAT
- switch fluorescence ratio: 0.9968 ± 0.0058

Sequence: AAAATAGGCT
- switch fluorescence ratio: 0.993 ± 0.029

Sequence: CAGGTAATAG
- switch fluorescence ratio: 1.17 ± 0.028

Sequence: TCGTCGTCCT
- switch fluorescence ratio: 1.02 ± 0.024

Sequence: ATAGGTCTTC
- switch fluorescence ratio: 0.983 ± 0.059

Sequence: TTAGGGGGCT
- switch fluorescence ratio: 1 ± 0.033

Sequence: TTTCTTATGA
- switch fluorescence ratio: 0.971 ± 0.025

Sequence: CGGTTACCAG
- switch fluorescence ratio: 1.03 ± 0.013

Sequence: AAATGTTATC
- switch fluorescence ratio: 0.986 ± 0.042

Sequence: TTCTAATGTA
- switch fluorescence ratio: 0.993 ± 0.021

Sequence: TGCCACTGGG
- switch fluorescence ratio: 1.06 ± 0.019

Sequence: TTTCCCAGGT
- switch fluorescence ratio: 3.64 ± 2.7

Sequence: AACCGGATTC
- switch fluorescence ratio: 1 ± 0.02

Sequence: CCACATTGCT
- switch fluorescence ratio: 1.21 ± 0.017

Sequence: TCGGGCCGG
- switch fluorescence ratio: 0.994 ± 0.023

Sequence: CGGATTAAAC
- switch fluorescence ratio: 1.04 ± 0.022

Sequence: GGTGGGGGAG
- switch fluorescence ratio: 1.01 ± 0.043

Sequence: TAATTGGGAG
- switch fluorescence ratio: 1.01 ± 0.02

Sequence: GGATTCTTAG
- switch fluorescence ratio: 0.986 ± 0.049

Sequence: TCGAGCCATA
- switch fluorescence ratio: 1.08 ± 0.046

Sequence: TACAAAGATG
- switch fluorescence ratio: 1.025 ± 0.0056

Sequence: AGGAGGGGA
- switch fluorescence ratio: 1.03 ± 0.02

Sequence: GGTTCTTCAA
- switch fluorescence ratio: 1.01 ± 0.023

Sequence: AAAAGCGGGT
- switch fluorescence ratio: 0.997 ± 0.023

Sequence: CGTTTTTAGT
- switch fluorescence ratio: 1.002 ± 0.0072

Sequence: GATGGGGTAG
- switch fluorescence ratio: 0.994 ± 0.039

Sequence: TTTTACTGCA
- switch fluorescence ratio: 1.07 ± 0.073

Sequence: CTCGATAAAA
- switch fluorescence ratio: 0.975 ± 0.022

Sequence: TGGGGGTTAC
- switch fluorescence ratio: 1.08 ± 0.13

Sequence: AGTTCGCTGT
- switch fluorescence ratio: 0.9889 ± 0.0067

Sequence: GTGTTAGAAG
- switch fluorescence ratio: 0.9749 ± 0.0015

Sequence: ACCAGGGGTT
- switch fluorescence ratio: 1.19 ± 0.027

Sequence: TTCTTTCCGT
- switch fluorescence ratio: 1.06 ± 0.026

Sequence: TAAATTTTCA
- switch fluorescence ratio: 1.03 ± 0.031

Sequence: TTTACGACAC
- switch fluorescence ratio: 2.02 ± 0.14

Sequence: ATGTTCAAAG
- switch fluorescence ratio: 0.975 ± 0.017

Sequence: TTTTGGGATT
- switch fluorescence ratio: 1.03 ± 0.06

Sequence: ACAGGAAGAG
- switch fluorescence ratio: 1.05 ± 0.038

Sequence: TAAATATTAG
- switch fluorescence ratio: 0.9837 ± 0.0031

Sequence: TAACAATTTT
- switch fluorescence ratio: 1.01 ± 0.019

Sequence: TCCGACTCTT
- switch fluorescence ratio: 1.53 ± 0.72

Sequence: TAGGGGACAG
- switch fluorescence ratio: 1.03 ± 0.058

Sequence: TGTTAGGC
- switch fluorescence ratio: 1.01 ± 0.05

Sequence: TTAGGCGGGG
- switch fluorescence ratio: 1 ± 0.061

Sequence: TCCAACATTT
- switch fluorescence ratio: 1 ± 0.046

Sequence: CATCGGGGTA
- switch fluorescence ratio: 1.02 ± 0.029

Sequence: TTTATATC
- switch fluorescence ratio: 1.07 ± 0.11

Sequence: TAAATGTTGT
- switch fluorescence ratio: 0.9869 ± 0.0055

Sequence: CATCTGTG
- switch fluorescence ratio: 1.03 ± 0.016

Sequence: TTTAACTAGT
- switch fluorescence ratio: 1 ± 0.018

Sequence: ATTAGTTGGG
- switch fluorescence ratio: 1.0052 ± 0.00057

Sequence: ATTTAGACTA
- switch fluorescence ratio: 1.01 ± 0.027

Sequence: CCATTCAGGT
- switch fluorescence ratio: 1.04 ± 0.065

Sequence: CAATGCCGAG
- switch fluorescence ratio: 0.9895 ± 0.0045

Sequence: GGTGGTAAGA
- switch fluorescence ratio: 0.978 ± 0.074

Sequence: AGGGTAGGCC
- switch fluorescence ratio: 1.009 ± 0.0019

Sequence: GATCATTGAG
- switch fluorescence ratio: 0.991 ± 0.012

Sequence: TATTGTGAGT
- switch fluorescence ratio: 0.996 ± 0.057

Sequence: TCTTTTCATT
- switch fluorescence ratio: 0.994 ± 0.022

Sequence: GCGTTAGGGG
- switch fluorescence ratio: 0.979 ± 0.016

Sequence: GAGATTAAGA
- switch fluorescence ratio: 0.973 ± 0.1

Sequence: ATGGGTTGGT
- switch fluorescence ratio: 0.981 ± 0.016

Sequence: GTTTGATGAA
- switch fluorescence ratio: 0.994 ± 0.084

Sequence: ACTAATCGAA
- switch fluorescence ratio: 1.05 ± 0.013

Sequence: AGTTTGTTCC
- switch fluorescence ratio: 1.02 ± 0.047

Sequence: AGGGGGCGTG
- switch fluorescence ratio: 1.03 ± 0.031

Sequence: CAGTAGAGGT
- switch fluorescence ratio: 0.9766 ± 0.0042

Sequence: AAGGTCACGC
- switch fluorescence ratio: 1.01 ± 0.024

Sequence: CAGTGGGGGG
- switch fluorescence ratio: 1.01 ± 0.039

Sequence: CTCTATGTTA
- switch fluorescence ratio: 1.02 ± 0.076

Sequence: GGGTCTCATT
- switch fluorescence ratio: 0.981 ± 0.022

Sequence: TAAAAGTAGT
- switch fluorescence ratio: 1.03 ± 0.041

Sequence: TTCATTTTGG
- switch fluorescence ratio: 1.05 ± 0.07

Sequence: GGGGTAGGCC
- switch fluorescence ratio: 0.995 ± 0.018

Sequence: ACGGGGGAGA
- switch fluorescence ratio: 1.24 ± 0.35

Sequence: CTTTTAGGGT
- switch fluorescence ratio: 0.996 ± 0.024

Sequence: AGGTTAATTT
- switch fluorescence ratio: 1.01 ± 0.046

Sequence: TAGTAAATAT
- switch fluorescence ratio: 1.006 ± 0.0041

Sequence: TATCGCGGTG
- switch fluorescence ratio: 1.005 ± 0.005

Sequence: TTATTAAAGG
- switch fluorescence ratio: 1.02 ± 0.071

Sequence: ACTGGGGCCA
- switch fluorescence ratio: 0.972 ± 0.047

Sequence: GATCATTAGA
- switch fluorescence ratio: 1.05 ± 0.061

Sequence: TAGGGAACGC
- switch fluorescence ratio: 1.02 ± 0.011

Sequence: TCATCTATAT
- switch fluorescence ratio: 1.03 ± 0.028

Sequence: GGGCTTGGGT
- switch fluorescence ratio: 1.08 ± 0.12

Sequence: CCGGGGAATC
- switch fluorescence ratio: 2.19 ± 0.57

Sequence: CGGTTCAGTT
- switch fluorescence ratio: 1.036 ± 0.0022

Sequence: AGGGCCTCCG
- switch fluorescence ratio: 1.295 ± 0.0091

Sequence: GACAGCAAAT
- switch fluorescence ratio: 1.406 ± 0.0043

Sequence: ATATGGGCGG
- switch fluorescence ratio: 0.98 ± 0.016

Sequence: TTTAGTTCGG
- switch fluorescence ratio: 0.998 ± 0.027

Sequence: GAAGGAATCG
- switch fluorescence ratio: 0.995 ± 0.048

Sequence: AAATTAGGGG
- switch fluorescence ratio: 0.9908 ± 0.0085

Sequence: ACCGATTTTT
- switch fluorescence ratio: 1.047 ± 0.01

Sequence: ACAACTTTTT
- switch fluorescence ratio: 1.02 ± 0.044

Sequence: ACCGGGGAAT
- switch fluorescence ratio: 1.02 ± 0.027

Sequence: TCGTCAGTG
- switch fluorescence ratio: 0.991 ± 0.012

Sequence: AGAAATTCGA
- switch fluorescence ratio: 1.03 ± 0.012

Sequence: ACAGGAGTTC
- switch fluorescence ratio: 0.968 ± 0.053

Sequence: GGCGTCGACG
- switch fluorescence ratio: 1.02 ± 0.11

Sequence: GAGAAGGGTG
- switch fluorescence ratio: 1.01 ± 0.071

Sequence: TTGAGTGTCA
- switch fluorescence ratio: 0.9852 ± 0.007

Sequence: GTTTTTTTCT
- switch fluorescence ratio: 1 ± 0.051

Sequence: AGAGTGAGAG
- switch fluorescence ratio: 0.9931 ± 0.0056

Sequence: TGAGGATCCA
- switch fluorescence ratio: 0.985 ± 0.013

Sequence: CGGGTATGGC
- switch fluorescence ratio: 1.02 ± 0.063

Sequence: TTTATAGGT
- switch fluorescence ratio: 0.9713 ± 0.0062

Sequence: TTAATGGGCG
- switch fluorescence ratio: 1.09 ± 0.18

Sequence: AGGAAATGGG
- switch fluorescence ratio: 1 ± 0.036

Sequence: GGTCAGCCGG
- switch fluorescence ratio: 1.02 ± 0.012

Sequence: TTATTGTGTT
- switch fluorescence ratio: 1.01 ± 0.028

Sequence: GTAGGTAGTT
- switch fluorescence ratio: 1.09 ± 0.14

Sequence: TTGTTAAGAG
- switch fluorescence ratio: 0.986 ± 0.043

Sequence: TTAGGGGGGA
- switch fluorescence ratio: 0.987 ± 0.032

Sequence: ATGAGAAGAC
- switch fluorescence ratio: 1.02 ± 0.021

Sequence: ATAAGTTTTA
- switch fluorescence ratio: 0.989 ± 0.0099

Sequence: GGTCCGTAGT
- switch fluorescence ratio: 1.04 ± 0.017

Sequence: CCGGTTAAAC
- switch fluorescence ratio: 1.64 ± 0.06

Sequence: ACTGTAGGGC
- switch fluorescence ratio: 1.04 ± 0.04

Sequence: AGGAAGCAG
- switch fluorescence ratio: 1.003 ± 0.0027

Sequence: TTTTGAGGTA
- switch fluorescence ratio: 1.05 ± 0.023

Sequence: TCGGTATTGG
- switch fluorescence ratio: 1.09 ± 0.1

Sequence: TTCGGTGGAG
- switch fluorescence ratio: 0.96 ± 0.081

Sequence: CGCGGGAGTA
- switch fluorescence ratio: 1.02 ± 0.018

Sequence: TCATTGTGGT
- switch fluorescence ratio: 0.988 ± 0.018

Sequence: AGAACACAGT
- switch fluorescence ratio: 1.006 ± 0.0014

Sequence: CTGAAGGGCG
- switch fluorescence ratio: 0.979 ± 0.044

Sequence: TTGTTATAGA
- switch fluorescence ratio: 0.998 ± 0.024

Sequence: CCCGTTGGTT
- switch fluorescence ratio: 1.27 ± 0.34

Sequence: CTGGGGTAAG
- switch fluorescence ratio: 1.01 ± 0.042

Sequence: AGTTTTACAT
- switch fluorescence ratio: 0.9608 ± 0.0018

Sequence: TGTTGTAGGG
- switch fluorescence ratio: 1.02 ± 0.02

Sequence: GCTTGAGGAG
- switch fluorescence ratio: 1 ± 0.009

Sequence: ACGTGCAGTG
- switch fluorescence ratio: 0.9525 ± 0.0085

Sequence: GAGGGGGACA
- switch fluorescence ratio: 0.9779 ± 0.0081

Sequence: GGGGTCTAGT
- switch fluorescence ratio: 1.01 ± 0.026

Sequence: ACCTATGAGG
- switch fluorescence ratio: 1.02 ± 0.029

Sequence: GCCGGTTTCT
- switch fluorescence ratio: 1.01 ± 0.031

Sequence: TCGATGATCG
- switch fluorescence ratio: 0.963 ± 0.046

Sequence: CTGGCAAGGT
- switch fluorescence ratio: 1.09 ± 0.031

Sequence: TAATCGGCCT
- switch fluorescence ratio: 1.04 ± 0.05

Source: the supplement of paper PMC10126150
